# Measured values as given in the nanobody polyreactivity screen of Harvey et al. (2022).
# Experiment: yeast display, Sf9 membrane polyspecificity reagent, FACS + sequencing; frameworks hold sequencing errors
# How it was run: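 Galactose-induced (36–48 hours) yeast carrying a synthetic nanobody display library were exposed to 10% biotinylated, detergent-solubilized Sf9 membrane reagent at 4 °C for 1 hour. FACS followed streptavidin microbead enrichment, using low and high (top ~1%) gates for expression (anti-HA) and reagent binding (streptavidin). Colony PCR, MiSeq 2 × 250 sequencing and CDR-length filtering followed. Labels for polyreactivity reflect the gate of origin.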
row,Sequence,polyreactivity (PSR sort gate)
1,HVQLVESGGGLVQAGGSLRLSCAASGFTFDYNTMGWSRQAPGKEREVVAGISRGGGSTYYADSVKGRFTISRDNAKNTVYLQMNSLKPEDTAVYYCNTVLKRQRKNEYWGQGTQVTVSS,high polyreactivity
2,QVQLVESGGGLVQAGGSLRLSCAASGSTFSAYGMGWYRQAPGKERELVARISWNGGSTYYADSVKGRFTISRDNAKNTVYLQMNSLKPEDTAVYYCNTELVGHPDWLSWRYYYWGQGTQVTVSS,low polyreactivity
3,QVQLVESGGGLVQAGGSLRLSCAASGRTFWSNAMGWYRQAPGKERELVATISSGGGNTYYADSVKGRFTISRDNAKNTVYLQMNSLKPEDTAVYYCAATKYRWTYAASFGYWGQGTQVTVSS,high polyreactivity
4,QVQLVESGGGLVQAGGSLRLSCAASGLTFVKNVMGWYRQAPGKERELVAAISRRGGSTYSADSVKGRFTISRDNAKNTVYLQMNSLQPADTAVYYCAARTPSPTRPQYYYWGQGTQVTVSS,high polyreactivity
5,QVQLVESGGGLVQAGGSLRLSSAASGITFRRYAMGWYRQAPGKERELVASITSGGSTNYADSVKGRFTISRDNAKYTVYLQMNSLKPDDTAVYYCAADSRWGMDYWGQGTQVTVSS,high polyreactivity
6,QVQLVESGGGLVQAGGSLRLSCAASGITLGAYAMGWYRQAPGKERELVAAISRSGGSTYYADSVKGRFTISRDNAKNTVYLQMNSLKPEDTAVYYCNAGITHGYDYWGQGTQLTVSS,high polyreactivity
7,QVQLVESGGGLVQAGGSLRLSCAASGRIFYNNVMGCYRQAPGKERELVAAISGNGGSTYYADSVKGRFTISRDNAKNTVYLQMNSLKPEDTAVYYCAARSSFRTLIFYQKFDYWGQGSQVTVSS,low polyreactivity
8,QVQLVESGGGLVQAGGSLRISCAASGNTFGDYAMGWYRQAPGKERELVAAISRSGGSTSYADSVKGRFTISRDNAKNTVYLQMNSLKPEDTAVYYCAGYWQRFGYDYWGQGTLVTVSS,low polyreactivity
9,QVQPQESAGGLVQAGGSLLQSSAASAYIFPYYSMGWYRQAPGKERGLVACIAAGTTTNYADSVKGRFTISRDNAKNTVYLQMKSLKPEDAAVYYCAALKAFNTGHWYWGQGTQVTVSS,low polyreactivity
10,QDQLVESGRGLVQAGGSLRLSCAASGRTFALNVMGWYRQAPGKERELVAAISRSGGSTYFADSVKGRFTISRDNAKNTVYIQMNSLKPEDTAVYSCAAATHYQSYKRRDYWGQGTQVTVSS,high polyreactivity
11,QVQLVESGGGLVQAGGSLRLSCAASGSTFYANAMGWYRQAPGKERELVADISFSGASTFYADSVKGRFTISRDNAKNTVYLQMNSLKPEDTAVYYCATDNPSVVGFDYWGQGTQVTVSS,low polyreactivity
12,QVQLVESGRGLVEAGGSLRLICAASGFIIRYYAMGWYRQAPWKERELVAAISTSGGRTYYADSVKGRFTISRDNAKNTVYLQMNSLKPEDTAVYYCNAYTHNRYYWGQGTQVTVSS,high polyreactivity
13,QVQLVESGGGLVQAGGSLRLSCAASGSTFSRNAMGWYRQAPGKERELVAAISRRGDTTYYADSVKGRFTISRDNAKNTVYLQMNSLKPEDTAVYYCNRLTIGSSSYDYWGQGTQVTVSS,high polyreactivity
14,QVQLVESGGGLVQAGGSLRLSCAASGSTSPNAMGWYRQAPGKERELVAAIWSGGTYYADSVKGRFTISRDNAKNTVYLQMNSLKPEDTAVYYCAVTGVYRGFRYGYWGQGTQVTVSS,low polyreactivity
15,QVQLVESGGGLVQAGGSLRLSCAASGRIFGVYAMGWYRQAPGKERELVAAIYSGSSTYYADSVKGRFTISRDNAKNTVYLQMNSLKPEDTAVYYCAAVSRDDNYHDYYYWGQGTQVTVSS,low polyreactivity
16,QVQLVESGGGLVQAGGSLRLSCAASGRTLAYYVMGWYRQAPGKERELVAAISGRGGRTNYADSVKGRFTISRDNAKNTVYLQMNSLKPEDTAVYYCAAYRTGYNVDYYYWGQGTQVTVSS,high polyreactivity

row,Sequence,polyreactivity (PSR sort gate)
1,QVQLVESGGGLVQAGGSLRLSCAASGLTFRYYAMGWYRQAPGKERELVAAINYSGGGTYYADSVKGRFTISRDNAKNTVYLQMNSLKPEDTAVYYCNAAYRGYYYWGQGTQVTVSS,high polyreactivity
2,QVQLVESGGGLVQAGGSLRLSCAASGSIFIAYGMGWYRQEPGKERELVAAITVSGGNTYYADSVKGRFTISRDNAKNTVYLQMKSLKPEDTAVYYCAADYWYYYGKGLYDYWGQGTQVTVSS,low polyreactivity
3,QVQLVESGGGIVQAGGSLRLSCAASGITFKGYTMGWYRQAPGKERELVATISRGGRTYADSVKGRFTISRDNAKNTVYLQMNSLKPEDTAVYYCAAQAERYGYEYWGQGTQVTVSS,low polyreactivity
4,QVQLVESGGGLVQAGGSHRLSCAASGSIYLYYAMGRYRQAPGKERELVAGINRVGSTNYADSVKGRFTISRDNAKNTVYLQMNSLKPEDTAGYYCAKVVNGGYFYYQYPAQYYYWGQGTQVTVSS,low polyreactivity
5,QVQLLESGGGLVQAGGSLRLSFAASGSTSRKYAMGLYRQAPGKERVLVAGITKGGGGTYYADSVKGRFTISRDNAKNTVYLLMNSLKPEDTAVYYCAKYYGSGYYIYDYWGLGTQVTVSS,low polyreactivity
6,QVQLVESGGGLVQAGGSLRLSSAASGIIFRRYAMGWYRQAPGKERELVAAMSWSGGSTYYADSVKGRFTISRDNAKNTVYLQMNSLKPEDTAVYYCAAAAYTRDEYDYWGQGTQVTVSS,high polyreactivity
7,QVTLVESGGGLVQAGGSLRLSCAASGFTFYIYAMGWYRQAPGKERELVAAISSSGTRTYYADSVKGRFTISRDHAKNTVYLQMNSLKPEDTAVYYCAAALGWYSAFGYWGQGTQVTVSS,high polyreactivity
8,QVQLVESGGGLVQAGGSLRLSCAASGRIFIRNAMGWYRQAPGKEREFVAAISYGGSTYYADSVKGRFTISRDNAKNTVYLQMNSLKPEDTAVYYCAARVLPYLTPRRQMYYWGQGTQVTVSS,low polyreactivity
9,QVQLVESGGGLVQAGGSLRLSCAASGFIFRPYAMGWYRQAPGKERELVAAITGGGSTYYADSVKGRFTISRDNAKNTVYLQMNSLKPEDTAVYYCAKDKGRAYFGPSPYDYWGQGTQVTVSS,low polyreactivity
10,QVKLVDSGVGLVQAGVSLRLSCAASGSIFGTYAMGWYRQAPGKERELVAAISYRGTSTYYADSVKGRFTISRDNAKNTVYLQMNSLKPEDTAVYYCAARHGYTYRSGYYYWGQGTQVTVSS,high polyreactivity
11,QVQLVESGGGLVQAGGSLRLSCAASGSTFWSNTMGWYRQAPGKERELVATITDSGGITYYADSVKGRFTISRDNAKNTVYLQMNSLKPEDTAVYYCNVRKTWYGYSVTGRYDYWGQGTQVTVSS,low polyreactivity
12,EVQLVESGGGLVQAGGSLRLSCAASGRTFNRYTMGWYRQAPGKERELVAAISRGAGTNYADSVKGRFTISRDNAKNTVYVQMNSLKPEDTAVYYCNARPYGWYASHEYGYWGQGTQVTVSS,high polyreactivity
13,QVQLVESGGGLVQAGGSLRLSCAASGSIFVPYTMGWYRQAPGKERELVAAINSSDDSTFYADSVKGRFTISRDNAKNTVYLKMYSLKPEDTAVYYCNATGYARWYTGDYWGQGTQVTVSS,low polyreactivity
14,QVQLVESGGGLVQAGGSLRLSCAASGGILPKNAMGCYRQAPGKQRELVAAISTRGTSTYYADSVKGRFTISRDNAKNTVYLQMNSLKPEDTGVYYCATSRVYIGYDYWGQGTQETVSS,low polyreactivity
15,QVQLEESGGGLVQAGGTLRLSCAASGRIFSGYAMGWYRQAPGKERELGAAISSSGGSTYYADSVQGRFTISRDNAKNTVYLQMNSLKPEDTAVYYCAASRSRYSVNWYNYWGQGTQVSVSS,high polyreactivity
16,QVQLVESGGGLVQAGGSLRLSCAASGRTSGGYAMGWYRQAPGNERELVASITWSGDTTYYADSVTGRFTISRDNAKNTVYLQMNSLKPEDTAVYYCATIPGYVYYWQYKYDYWGQGTQVTVSS,low polyreactivity
